In patent EP4477673A1, “IMMUNOCONJUGATE AND USE THEREOF” (priority 2022, dated 2023):

How the values were obtained:
[1] = molecular target: human PD-1 (human, UniProt Q15116 25-288); assay: cell-based or functional assay
[2] = molecular target: Human PD-1 antigen protein (Sino Biological, 10377-H08H) (human, UniProt Q15116 25-167); assay: SPR Biacore 8K, fusion protein captured by anti-human IgG (Fc), human PD-1 as analyte
[3] = tested on: unstimulated CD4^+ T cells; assay: Unstimulated T cell proliferation experiment (Ki-67, FACS); type: cell-based, human; settings: 4 days
Protocol: (§1) T cells stimulated with CD3 antibodies highly express PD-1. To determine whether the PD-1-IL-2v with different IL-2 mutants described above can activate T cells among human peripheral blood mononuclear cells (PBMCs) that lowly express PD-1 and highly express PD-1, T cells were isolated from PBMCs and stimulated with a CD3 antibody. The effects of the fusion proteins described above on the proliferation of unstimulated and stimulated T cells were assessed. Unstimulated T cell proliferation experiment: The isolated T cells were counted and then plated at 5 × 10^5 cells/mL onto a 96-well plate at 200 µL/well. The test samples were serially diluted with culture medium to prepare 5× working solutions, and 50 µL of each concentration of the test samples was added to the stimulated T cells and mixed well. The plate was incubated for 4 days. After the drug treatment, the cells were washed twice with FACS buffer, and dead cells were labeled with FVD780. After flow cytometry antibody staining, cell proliferation was examined by FACS.

[4] = tested on: unstimulated CD8^+ T cells; assay: as above; type: cell-based, human; settings: 4 days
Protocol: as §1

[5] = tested on: CD4^+ T cells stimulated with the CD3 antibody; assay: Proliferation experiment of T cells stimulated with a CD3 antibody (Ki-67, FACS); type: cell-based, human; settings: 4 days
Protocol: (§2) T cells stimulated with CD3 antibodies highly express PD-1. To determine whether the PD-1-IL-2v with different IL-2 mutants described above can activate T cells among human peripheral blood mononuclear cells (PBMCs) that lowly express PD-1 and highly express PD-1, T cells were isolated from PBMCs and stimulated with a CD3 antibody. The effects of the fusion proteins described above on the proliferation of unstimulated and stimulated T cells were assessed. Proliferation experiment of T cells stimulated with a CD3 antibody: After frozen human PBMCs were thawed, T cells were obtained by isolation using a Pan T Cell Isolation Kit (Miltenyi, 130-096-535). The CD3 antibody was diluted with PBS to 0.1 µg/mL and added to a 10 cm culture dish. The dish was coated at 37 °C for 2 h and washed with PBS for later use. The T cells were plated at 2 × 10^6 cells/mL onto the 10 cm culture dish precoated with the CD3 antibody and stimulated at 37 °C with 5% CO2 for 24 h. The stimulated T cells were collected, washed, and counted, and the cell density was adjusted to 5 × 10^5 cells/mL. The cells were plated at 200 µL/well onto a 96-well plate. The test samples were serially diluted with culture medium to prepare 5× working solutions, and 50 µL of each concentration of the test samples was added to the stimulated T cells and mixed well. The plate was incubated for 4 days. After the drug treatment, the cells were washed twice with FACS buffer (PBS + 2% FBS), and dead cells were labeled with Fixable Viability Dye (eBioscience, 65-0865-14). After flow cytometry antibody staining with CD3 (BD, 565491), CD4 (BD, 558116), CD8 (BD, 565310), Ki-67 (eBioscience, 12-5698-82)), cell proliferation was examined by FACS.

[6] = tested on: CD8^+ T cells stimulated with the CD3 antibody; assay: as above; type: cell-based, human; settings: 4 days
Protocol: as §2

Chain of human PD-1 (Q15116 25-288 limits assumed): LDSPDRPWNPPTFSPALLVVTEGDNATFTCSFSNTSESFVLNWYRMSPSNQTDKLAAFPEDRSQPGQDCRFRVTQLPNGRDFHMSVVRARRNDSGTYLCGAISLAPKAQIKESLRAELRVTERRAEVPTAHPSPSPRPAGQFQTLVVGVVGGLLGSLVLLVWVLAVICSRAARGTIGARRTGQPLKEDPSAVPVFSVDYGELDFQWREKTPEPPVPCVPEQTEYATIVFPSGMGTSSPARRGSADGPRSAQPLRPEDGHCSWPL
Chain of Human PD-1 antigen protein (Sino Biological, 10377-H08H) (Q15116 25-167 limits assumed): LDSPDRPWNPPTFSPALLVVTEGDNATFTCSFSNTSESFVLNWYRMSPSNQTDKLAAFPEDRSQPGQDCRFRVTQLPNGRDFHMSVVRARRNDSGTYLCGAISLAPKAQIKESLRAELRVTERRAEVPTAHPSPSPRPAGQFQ

B1: A-N88D-M08 (Fc fusion)
chain (part 1 of 2): EVQLVESGGGLVQPGGSLRLSCAASGLTFSDYSMSWYRQAPGKGRELVAIISGSGVITHYVDSVKGRFTISRDNAKNTLYLQMRSLRAEDTAVYYCRAVSDWQDYWGQGTQVTVSS
chain (part 2 of 2): GGGGSGGGGSGGGGSAPASSSTKKTQLQLEHLLLDLQMILQGISNYKNPKLTRMLTAKFYMPKKATELKHLQCLEEELKPLEEVLQGAQSKNFHLRPRDLISDINVIVLELKGSETTFMCEYADETATIVEFLNRWITFAQSIISTLT
chain: EVQLVESGGGLVQPGGSLRLSCAASGLTFSDYSMSWYRQAPGKGRELVAIISGSGVITHYVDSVKGRFTISRDNAKNTLYLQMRSLRAEDTAVYYCRAVSDWQDYWGQGTQVTVSS
notes: also called A-N88D-M8; not shown: IgG1 hinge (C220S) + Fc Knob chain as in A-N88D; IgG1 hinge (C220S) + Fc Hole chain as in A-N88D
- M07e-hPD-1 cell proliferation ratio (%) at 0.0001 nM [1]: 3.8%
- M07e-hPD-1 cell proliferation ratio (%) at 0.001 nM [1]: 4.5%
- M07e-hPD-1 cell proliferation ratio (%) at 0.01 nM [1]: 11.9%
- M07e-hPD-1 cell proliferation ratio (%) at 0.1 nM [1]: 27.3%
- M07e-hPD-1 cell proliferation ratio (%) at 1 nM [1]: 36%
- M07e-hPD-1 cell proliferation ratio (%) at 10 nM [1]: 35.5%
- M07e-hPD-1 cell proliferation ratio (%) at 100 nM [1]: 35.5%
- M07e-hPD-1 cell proliferation ratio (%) at 1000 nM [1]: 44.2%
- Kd [2]: 12.3 nM
- koff [2]: 0.00264 s⁻¹
- kon [2]: 215000 M⁻¹ s⁻¹

B2: A-N88D-M15 (Fc fusion)
chain (part 1 of 2): EVQLVESGGGLVQPGGSLRLSCAASGLTFSDYSMSWYRQAPGKGRELVAIISGSGGITHYVDSVKGRFTISRDNAKNTLYLQMRSLRAEDTAVYYCRAVSDWEDYWGQGTQVTVSS
chain (part 2 of 2): GGGGSGGGGSGGGGSAPASSSTKKTQLQLEHLLLDLQMILQGISNYKNPKLTRMLTAKFYMPKKATELKHLQCLEEELKPLEEVLQGAQSKNFHLRPRDLISDINVIVLELKGSETTFMCEYADETATIVEFLNRWITFAQSIISTLT
chain: EVQLVESGGGLVQPGGSLRLSCAASGLTFSDYSMSWYRQAPGKGRELVAIISGSGGITHYVDSVKGRFTISRDNAKNTLYLQMRSLRAEDTAVYYCRAVSDWEDYWGQGTQVTVSS
notes: not shown: IgG1 hinge (C220S) + Fc Knob chain as in A-N88D; IgG1 hinge (C220S) + Fc Hole chain as in A-N88D
- M07e-hPD-1 cell proliferation ratio (%) at 0.0001 nM [1]: 8.9%
- M07e-hPD-1 cell proliferation ratio (%) at 0.001 nM [1]: 4.1%
- M07e-hPD-1 cell proliferation ratio (%) at 0.01 nM [1]: 7%
- M07e-hPD-1 cell proliferation ratio (%) at 0.1 nM [1]: 17%
- M07e-hPD-1 cell proliferation ratio (%) at 1 nM [1]: 32.9%
- M07e-hPD-1 cell proliferation ratio (%) at 10 nM [1]: 41.6%
- M07e-hPD-1 cell proliferation ratio (%) at 100 nM [1]: 54.9%
- M07e-hPD-1 cell proliferation ratio (%) at 1000 nM [1]: 47.7%
- Kd [2]: 29.3 nM
- koff [2]: 0.00706 s⁻¹
- kon [2]: 241000 M⁻¹ s⁻¹

B3: A-N88D-M27 (Fc fusion)
chain (part 1 of 2): EVQLVESGGGLVQPGGSLRLSCAASGLTFSSYSMSWYRQAPGKGRELVAIISGSGGITHYVDSVKGRFTISRDNAKNTLYLQMRSLRAEDTAVYYCRAVSDWQDYWGQGTQVTVSS
chain (part 2 of 2): GGGGSGGGGSGGGGSAPASSSTKKTQLQLEHLLLDLQMILQGISNYKNPKLTRMLTAKFYMPKKATELKHLQCLEEELKPLEEVLQGAQSKNFHLRPRDLISDINVIVLELKGSETTFMCEYADETATIVEFLNRWITFAQSIISTLT
chain: EVQLVESGGGLVQPGGSLRLSCAASGLTFSSYSMSWYRQAPGKGRELVAIISGSGGITHYVDSVKGRFTISRDNAKNTLYLQMRSLRAEDTAVYYCRAVSDWQDYWGQGTQVTVSS
notes: as for B2
- M07e-hPD-1 cell proliferation ratio (%) at 0.0001 nM [1]: 7.5%
- M07e-hPD-1 cell proliferation ratio (%) at 0.001 nM [1]: 4.9%
- M07e-hPD-1 cell proliferation ratio (%) at 0.01 nM [1]: 4.9%
- M07e-hPD-1 cell proliferation ratio (%) at 0.1 nM [1]: 9.3%
- M07e-hPD-1 cell proliferation ratio (%) at 1 nM [1]: 21.1%
- M07e-hPD-1 cell proliferation ratio (%) at 10 nM [1]: 31.9%
- M07e-hPD-1 cell proliferation ratio (%) at 100 nM [1]: 39.5%
- M07e-hPD-1 cell proliferation ratio (%) at 1000 nM [1]: 60%
- Kd [2]: 74.3 nM
- koff [2]: 0.0102 s⁻¹
- kon [2]: 137000 M⁻¹ s⁻¹

B4: A-N88D-M26 (Fc fusion)
chain (part 1 of 2): EVQLVESGGGLVQPGGSLRLSCAASGLTFSSYSMSWYRQAPGKGRELVAIISGSGGITHYVDSVKGRFTISRDNAKNTLYLQMRSLRAEDTAVYYCRAVSDWEDYWGQGTQVTVSS
chain (part 2 of 2): GGGGSGGGGSGGGGSAPASSSTKKTQLQLEHLLLDLQMILQGISNYKNPKLTRMLTAKFYMPKKATELKHLQCLEEELKPLEEVLQGAQSKNFHLRPRDLISDINVIVLELKGSETTFMCEYADETATIVEFLNRWITFAQSIISTLT
chain: EVQLVESGGGLVQPGGSLRLSCAASGLTFSSYSMSWYRQAPGKGRELVAIISGSGGITHYVDSVKGRFTISRDNAKNTLYLQMRSLRAEDTAVYYCRAVSDWEDYWGQGTQVTVSS
notes: as for B2
- M07e-hPD-1 cell proliferation ratio (%) at 0.0001 nM [1]: 3.7%
- M07e-hPD-1 cell proliferation ratio (%) at 0.001 nM [1]: 4.8%
- M07e-hPD-1 cell proliferation ratio (%) at 0.01 nM [1]: 9.3%
- M07e-hPD-1 cell proliferation ratio (%) at 0.1 nM [1]: 10.7%
- M07e-hPD-1 cell proliferation ratio (%) at 1 nM [1]: 23.2%
- M07e-hPD-1 cell proliferation ratio (%) at 10 nM [1]: 37%
- M07e-hPD-1 cell proliferation ratio (%) at 100 nM [1]: 43.1%
- M07e-hPD-1 cell proliferation ratio (%) at 1000 nM [1]: 54.4%
- Kd [2]: 53.1 nM
- koff [2]: 0.00948 s⁻¹
- kon [2]: 179000 M⁻¹ s⁻¹

B5: A-N88D-M28 (Fc fusion)
chain (part 1 of 2): EVQLVESGGGLVQPGGSLRLSCAASGLTFSSYSMSWYRQAPGKGRELVAIISGSGGITHYADSVKGRFTISRDNAKNTLYLQMRSLRAEDTAVYYCRAVSDWQDYWGQGTQVTVSS
chain (part 2 of 2): GGGGSGGGGSGGGGSAPASSSTKKTQLQLEHLLLDLQMILQGISNYKNPKLTRMLTAKFYMPKKATELKHLQCLEEELKPLEEVLQGAQSKNFHLRPRDLISDINVIVLELKGSETTFMCEYADETATIVEFLNRWITFAQSIISTLT
chain: EVQLVESGGGLVQPGGSLRLSCAASGLTFSSYSMSWYRQAPGKGRELVAIISGSGGITHYADSVKGRFTISRDNAKNTLYLQMRSLRAEDTAVYYCRAVSDWQDYWGQGTQVTVSS
notes: as for B2
- M07e-hPD-1 cell proliferation ratio (%) at 0.0001 nM [1]: 7.2%
- M07e-hPD-1 cell proliferation ratio (%) at 0.001 nM [1]: 6.3%
- M07e-hPD-1 cell proliferation ratio (%) at 0.01 nM [1]: 9.4%
- M07e-hPD-1 cell proliferation ratio (%) at 0.1 nM [1]: 7.6%
- M07e-hPD-1 cell proliferation ratio (%) at 1 nM [1]: 12.4%
- M07e-hPD-1 cell proliferation ratio (%) at 10 nM [1]: 19.1%
- M07e-hPD-1 cell proliferation ratio (%) at 100 nM [1]: 34.4%
- M07e-hPD-1 cell proliferation ratio (%) at 1000 nM [1]: 51.3%
- Kd [2]: 134 nM
- koff [2]: 0.0198 s⁻¹
- kon [2]: 148000 M⁻¹ s⁻¹

B6: PEG-IL-2v (conjugate)
chain: APASSSTKKTQLQLEHLLLDLQMILQGISNYKNPKLTRMLTAKFYMPKKATELKHLQCLEEELKPLEEVLQGAQSKNFHLRPRDLISNINVIVLELKGSETTFMCEYADETATIVEFLNRWITFAQSIISTLT
- CD4^+ Ki67^+ cells (%) ([3]; 0.001 nM): 0.29%
- CD4^+ Ki67^+ cells (%) ([3]; 0.01 nM): 1.51%
- CD4^+ Ki67^+ cells (%) ([3]; 0.1 nM): 1.38%
- CD4^+ Ki67^+ cells (%) ([3]; 1 nM): 1.77%
- CD4^+ Ki67^+ cells (%) ([3]; 10 nM): 10.2%
- CD4^+ Ki67^+ cells (%) ([3]; 100 nM): 45%
- CD8^+ Ki67^+ cells (%) ([4]; 0.001 nM): 0.22%
- CD8^+ Ki67^+ cells (%) ([4]; 0.01 nM): 0.59%
- CD8^+ Ki67^+ cells (%) ([4]; 0.1 nM): 0.29%
- CD8^+ Ki67^+ cells (%) ([4]; 1 nM): 1.54%
- CD8^+ Ki67^+ cells (%) ([4]; 10 nM): 43%
- CD8^+ Ki67^+ cells (%) ([4]; 100 nM): 87.3%
- CD4^+ Ki67^+ cells (%) ([5]; 0.001 nM): 32.9%
- CD4^+ Ki67^+ cells (%) ([5]; 0.01 nM): 34.8%
- CD4^+ Ki67^+ cells (%) ([5]; 0.1 nM): 43.3%
- CD4^+ Ki67^+ cells (%) ([5]; 1 nM): 63%
- CD4^+ Ki67^+ cells (%) ([5]; 10 nM): 73%
- CD4^+ Ki67^+ cells (%) ([5]; 100 nM): 74.7%
- CD8^+ Ki67^+ cells (%) ([6]; 0.001 nM): 55.5%
- CD8^+ Ki67^+ cells (%) ([6]; 0.01 nM): 55.5%
- CD8^+ Ki67^+ cells (%) ([6]; 0.1 nM): 67.1%
- CD8^+ Ki67^+ cells (%) ([6]; 1 nM): 76.6%
- CD8^+ Ki67^+ cells (%) ([6]; 10 nM): 82%
- CD8^+ Ki67^+ cells (%) ([6]; 100 nM): 82.5%
